This note sets out measurements from patent US9856300B2, “Dpy-30 binding peptides and methods of use” (Marquette University, priority 2011, dated 2018).

No end group written: not given here.

Assay [1] deals with T1, Dpy-30 (Homo sapiens, UniProt Q9C005). Description: Ni-NTA pulldown of GST-tagged RSP3 peptides with His-tagged human Dpy-30 protein. It is filed as binding. The settings on record: full-length human His-Dpy-30 co-expressed with GST-RSP3 peptide. Also noted: made in house; host or cells: E. coli BL21(DE3), co-expressed with the GST-RSP3 peptides. From the text:
(§1) Based on the phenotypes of RSP3 transgenic strains (FIG. 4), an in vitro approach was taken to test that RSP3269-316 contains a Dpy-30 domain binding site. RIIa-binding AHs are 14-18-a.a. long. Some of AHs are clearly comprised of ΦΦXX repeats in which the first two residues are hydrophobic residues (Φ) positioned to interact with complementary residues at the binding grooves of the RIIa domain (Burns-Hamuro et al., 2003; Kinderman et al., 2006; Sarma et al., 2010), whereas for the other RIIa-binding AHs the repeats are not as evident (Gold et al., 2006; Gaillard et al., 2001). Typical ΦΦXX repeats were noted within the Dpy-30 binding fragment in BIG1 at the trans-Golgi network but were not tested yet (Xia et al., 2010). For RSP3269-316, typical and degenerate ΦΦXX repeats are present throughout this region, thus the precise Dpy-30 binding site was determined objectively by Ni-NTA pulldown. As a control, the His-tagged RIIa domain from RSP7 was co-expressed with the GST-tagged RSP396-180 that harbors AHR at a.a.#161-178 (Gaillard et al., 2001; FIG. 3) and both polypeptides were co-purified by Ni-NTA (FIG. 7A). Various Dpy-30 domain containing RSP2 and RSP23 polypeptides were tested but were not compatible for this assay due to poor expression or precipitation propensity. Therefore we used the His-tagged human Dpy-30 protein for Ni-NTA pulldown instead. As expected, both GST-RSP3245-316 and GST-RSP3269-316 were co-purified with His-Dpy-30 by Ni-NTA (FIGS. 7B and 7C). In contrast, the GST control was not co-purified (FIG. 7D).
The experiments were further conducted on smaller segments within a.a.#269-316. GST-RSP3280-316 and GST-RSP3280-308, but not GST-RSP3280-306, were also pulled down by His-Dpy-30 (FIG. 7E, left panel). […] To ensure that the co-purification occurs through the Dpy-30 domain rather than its flanking sequence, the same experiment was conducted with the Dpy-30 domain only (Dpy-3045-99, Wang et al., 2009). The results from the experiments using Dpy-30 domain alone or full-length Dpy-30 protein were similar (FIG. 7E, right panel). Based on the similar dimensions of the RIIa and Dpy-30 domains (FIG. 1), we tested if the Dpy-30 binding peptide is centered on the 18-a.a. helix at the a.a.#291-308 by mutating V300 in the middle of the region into P, a strategy used to study AHR (Gaillard et al., 2001; Carr et al., 1992). […] RSP3291-308.
For Ni-NTA (Qiagen) affinity co-purification, GST-tagged RSP3 constructs and His-tagged HDpy-30 constructs were co-transformed into BL21(DE3) cells. The recombinant proteins were induced using 1 mM IPTG overnight at 16° C. Following induction, the cell pellet from a 5-ml culture was resuspended in 750 μl lysis buffer and sonicated using Branson digital Sonifier (Emerson Industrial Automation). The sonicated mixtures were centrifuged at 4° C., 12,000 rpm for 25 min. The supernatant was incubated with 100 μl Ni-NTA for 1 hour at room temperature. The matrix was subsequently washed thrice and elution was carried out as instructed by the manufacturer.

Assay [2] relates to RIIa domain from RSP7. Description: Ni-NTA pulldown with His-tagged RIIa domain from RSP7. The settings on record: co-expressed in bacteria. It is filed as binding, Chlamydomonas.
Source text: as §1
Based on the structural similarity, we tested for the cross-recognition of His-Dpy-30 and AHR (GST-RSP3g); and RSP7's RIIa and AHD (GST-RSP3280-308) by the described Ni-NTA pulldown assay. […] Thus Dpy-30 that has a deep pocket from an additional α-helix recognizes both AHR and AHD, whereas RSP7's RIIa, as PKA's RII, only binds RSP3's AHR(Gaillard et al., 2001). […]

For assay [3], the target named is T2, Dpy-30 D/D (a.a. #49-99) (Homo sapiens, UniProt Q9C005).
T2 construct: His-Dpy-30 D/D (a.a. #49-99) was co-expressed with GST-hAsh2593-623; made in house; host or cells: E. coli BL21(DE3)
T2 sequence (Q9C005 49-99): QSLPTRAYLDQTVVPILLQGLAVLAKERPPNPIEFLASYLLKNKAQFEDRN
Description: Ni-NTA pulldown of GST-hAsh2 peptides with His-Dpy-30 D/D. It is filed as binding. The settings on record: His-Dpy-30 D/D a.a. #49-99 co-expressed. From the text:
To differentiate if the interaction is via the Dpy-30 domain or the N-terminal fragment, His-Dpy-30 D/D (a.a. #49-99) was co-expressed with GST-hAsh2593-623 (FIG. 11C). To define the N-terminal end of Dpy-30 D/D binding site in hAsh2, W599 in the first potential ΦΦXX motif was mutated into P to disrupt helicity, an approach to abolish D/D-binding (Carr et al., 1982; Burns-Hamuro et al., 2003). […] Thus, the site that directly binds Dpy-30 D/D resides within hAsh2600-617 that is after W599 and contains four ΦΦXX-like motifs, even though an acidic residue occupies a supposedly hydrophobic position in the last motif, VETE (SEQ ID NO:35). The affinity may be further enhanced by adjacent sequences (Burns-Hamuro et al., 2003; Banky et al., 2003).
(§2) All expression constructs were transformed or co-transformed into BL21(DE3) cells. The colonies were selected based on the antibiotic-resistant gene in each plasmid. The cultures were induced with 1 mM IPTG overnight at 18° C. The cell pellet from a 5-ml culture was resuspended in 750-μl lysis buffer supplemented with Complete Mini EDTA-free protease inhibitor cocktail tablets (Roche) and the suspension was sonicated on ice using Branson digital Sonifier until clarified (Emerson Industrial Automation). The sonicated mixtures were centrifuged at 4° C., 12,000 rpm for 25 min. The supernatant or combinations of supernatants as indicated were incubated with ˜100 μl Ni-NTA (Qiagen or Clontech) or Glutathione Sepharose 4B (Amersham Biosciences) for 1 hour at room temperature. The matrix was subsequently washed as instructed by manufacturers, unless indicated otherwise.
(§3) Bacterial extract, flow through and eluate in 1× Laemmli samples buffer were boiled for 5 min. In general, 10 μl samples were loaded in each lane in 4-20% precast acrylamide gels (Bio-Rad or DGEL Electrosystem, Canada) or 14% manually cast gels.

Assay [4] concerns the target T1, Dpy-30. Description: Ni-NTA pulldown of GST-hAsh2 peptides with His-Dpy-30. It is filed as binding. More on the design: Dpy-30 fragments, full length or a.a.#49-99, were amplified using purchased IMAGE cDNA clone #4081996 as a template; made in house; host or cells: E. coli BL21(DE3); key to co-purified with Dpy-30: “+” or “−” indicates if the peptides were or were not evidently co-purified with Dpy-30; “+” or “−” indicates if the peptides were or were not evidently co-purified with Dpy-30. To be noted: GST-fused hAsh2 peptides, Ni-NTA pulldown, Coomassie-stained SDS-PAGE.
Source text: To test this, we performed pull down assays for His-Dpy-30 and GST-hAsh2593-623. The human Ash2 fragment contains a helix with two typical and three atypical ΦΦXX motifs. The hAsh2 DNA was fused downstream to GST DNA by PCR and the product was cloned into an expression vector. Three clones—#9 and #14 with the expected in-frame fusion and #6 with an out-of-frame fusion—were expressed in bacteria. Their extract was mixed with equal volume of bacterial extract with His-Dpy-30; and the mixture was subjected to Ni-NTA purification. […] Thus hAsh2593-623 interacts with Dpy-30 specifically.
Table 3 illustrates the protein sequences of hAsh2's C-terminal region (hAsh2593-623) and its variants, where “+” or “−” indicates if the peptides were or were not evidently co-purified with Dpy-30. The shorter fusion protein GST-hAsh2593-617 that terminated right after the last possible ΦΦXX-like motif, VETE (SEQ ID NO:35), in the helix was also co-purified with His-Dpy-30 (FIG. 11B, arrow and double arrowheads), no matter expressed separately or co-expressed. Both polypeptides were depleted in the flow through of Ni-NTA matrix (Post in FIG. 11B) and retained in the eluate.
as §2, §3

T1 sequence (Q9C005 whole entry, the tested form may be a part): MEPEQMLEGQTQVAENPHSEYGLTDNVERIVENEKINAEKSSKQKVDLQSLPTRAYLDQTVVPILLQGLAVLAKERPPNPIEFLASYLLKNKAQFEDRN

For “GST-RSP3280-306: GST-tagged Chlamydomonas RSP3 fragment a.a. 280-306 (PWLKEQAIGYLARGVVARRVVDKLVED; also: GST tag)”, the “co-purification / pulldown with His-Dpy-30” value in assay [1] is reported as “not”.
With “GST-RSP3280-308: GST-tagged RSP3 fragment a.a. 280-308, the Dpy-30-binding amphipathic helix AHD (PWLKEQAIGYLARGVVARRVVDKLVEDAA; also: GST-tagged (fusion))”, the “co-purification / pulldown with His-Dpy-30” value in assay [1] is “pulled down”. In assay [2], the “co-purification / pulldown with His-RIIa from RSP7” value is listed as “did not significantly pull down”.
In the case of “GST-RSP3280-316: GST-tagged Chlamydomonas RSP3 fragment a.a. 280-316 (PWLKEQAIGYLARGVVARRVVDKLVEDAAAALAANRS; also: GST tag)”, the “co-purification / pulldown with His-Dpy-30” value in assay [1] is on record as “pulled down”.
Take PMSDMGPGAVVEHTLADVLYHVETEVDGRRS [W500P]: the “co-purification with the Dpy-30 domain” value in assay [3] was “still co-purified”. Moreover, in assay [4], the “co-purified with Dpy-30” value is recorded as “−”.
The matching figures for “PMSDMGWGAVVEHTLAD----------GRRS (PMSDMGWGAVVEHTLADGRRS; also: GST fusion) [Δ610-619, GST-hAsh2593-623 with a.a. #610-619 deleted]”: “abolished the co-purification” and “−”.
The matching figures for “PMSDMGWGAVVEHTLADVLYH------GRRS (PMSDMGWGAVVEHTLADVLYHGRRS; also: GST fusion) [Δ614-619, GST-hAsh2593-623 with VETEVD deleted]”: “abolished the co-purification” and “−”.
